Series [1] concerns the target T1, SarA (Staphylococcus aureus MRSA252, UniProt Q6GJ52 1-124).
T1 sequence: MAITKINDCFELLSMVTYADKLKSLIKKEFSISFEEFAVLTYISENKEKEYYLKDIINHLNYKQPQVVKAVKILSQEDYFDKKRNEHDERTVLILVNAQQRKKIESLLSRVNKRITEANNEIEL
The series is described as follows: EMSA; no binding up to 1.8 uM SarA; EMSA: 10 mM Tris-HCl pH 7.5, 50 mM KCl, 1 mM DTT, 5 mM MgCl2, 2.5% glycerol, 1 ug poly(dI-dC), 200 ng herring sperm DNA, 30 min, temperature not stated, 6% native gel; Kd = protein at 50% bound DNA. Footprinting: same buffer, 37 C, DNase I at 25 C. Conditions: protein: recombinant; tags: none (pET22b, pelB leader removed); chain copies: 2; label: 5'-32P.

For series [2], the target named is T1, SarA. The series is described as follows: EMSA; EMSA: 10 mM Tris-HCl pH 7.5, 50 mM KCl, 1 mM DTT, 5 mM MgCl2, 2.5% glycerol, 1 ug poly(dI-dC), 200 ng herring sperm DNA, 30 min, temperature not stated, 6% native gel; Kd = protein at 50% bound DNA. Footprinting: same buffer, 37 C, DNase I at 25 C. Conditions: protein: recombinant; tags: none (pET22b, pelB leader removed); chain copies: 2; label: 5'-32P; blunt.

The target in series [3] is T1, SarA. The series is described as follows: EMSA; printed as >=1.8 uM; no saturation up to 3.6 uM, binding stated; EMSA: 10 mM Tris-HCl pH 7.5, 50 mM KCl, 1 mM DTT, 5 mM MgCl2, 2.5% glycerol, 1 ug poly(dI-dC), 200 ng herring sperm DNA, 30 min, temperature not stated, 6% native gel; Kd = protein at 50% bound DNA. Footprinting: same buffer, 37 C, DNase I at 25 C. Conditions: protein: recombinant; tags: none (pET22b, pelB leader removed); chain copies: 2; label: 5'-32P.

B1: seqB1 (dsDNA)
DNA 1: CATATTAGAAAAACTTATTACTATGTAGCGTAAAGC
DNA 2: GCTTTACGCTACATAGTAATAAGTTTTTCTAATATG
Turning to B1, the binding result with SarA [1] is given as “no binding”.

B2: Pagr 45-bp (dsDNA)
DNA 1: GTAAATTTTTTTATGTTAAAATATTAAATACAAATTACATTTAAC
DNA 2: GTTAAATGTAATTTGTATTTAATATTTTAACATAAAAAAATTTAC
With B2, the equilibrium dissociation constant (Kd) with SarA [2] is roughly 400 nM.

B3: seqA1 (dsDNA)
DNA 1: CATTATAGCCTTAAATTGTAGTACTTTATAGTAAAAAATACAAATGTTATGTC
DNA 2: GACATAACATTTGTATTTTTTACTATAAAGTACTACAATTTAAGGCTATAATG
Consider B3, for which, in the series with SarA [3], the Kd is greater than 1800 nM.

The values are drawn from PMC3431356, “Staphylococcus aureus Methicillin-Resistance Factor fmtA Is Regulated by the Global Regulator SarA”.
